Reference: patent US12662530

Columns and labels:
[1] = biological target: human recombinant adrenomedullin receptor (CRLR+RAMP3) (human)
[2] = biological target: human recombinant adrenomedullin receptor (CRLR+RAMP3) (human); remark: listed apart in the source

**Q.** “human ADM 22-52 (from UniProt P35318) (peptide)” was tested. Which IC50 (read off the curve), inhibition of cAMP stimulation by 5.63 nM hADM [1] did it give?
**A.** The IC50 (read off the curve), inhibition of cAMP stimulation by 5.63 nM hADM was 200 nM.

**Q.** What about the IC50 (read off the curve), inhibition of cAMP stimulation by 0.67 nM mADM [2] of the same substance?
**A.** Its IC50 (read off the curve), inhibition of cAMP stimulation by 0.67 nM mADM is 2000 nM.
